Laboratory results: US20140348865A1, “[…] ON AN HIV-1 V1V2 SITE-OF-VULNERABILITY” (The United States of America, as represented by the …, priority 2011, published 2014)

Legend:
[1] = molecular target: Env of HIV-1 strain T251-18 (pseudovirus) (HIV-1)
[2] = molecular target: Env of HIV-1 strain JRFL (pseudovirus) (HIV-1)
[3] = molecular target: Env of HIV-1 strain 7165.18 (pseudovirus) (HIV-1)
[4] = molecular target: Env of HIV-1 strain CNE4 (pseudovirus) (HIV-1)
[5] = molecular target: Env of HIV-1 strain RHPA (pseudovirus) (HIV-1)
[6] = molecular target: Env of HIV-1 strain 3873 (pseudovirus) (HIV-1)
[7] = molecular target: Env of HIV-1 strain ZM135 (pseudovirus) (HIV-1)
[8] = molecular target: Env of HIV-1 strain 6471 (pseudovirus) (HIV-1)
[9] = molecular target: Env of HIV-1 strain 6322 (pseudovirus) (HIV-1)
[10] = molecular target: Env of HIV-1 strain 6631 (pseudovirus) (HIV-1)
[11] = molecular target: Env of HIV-1 strain CNE30 (pseudovirus) (HIV-1)

monoclonal antibody PG16 showed a neutralization IC50 (REJO.67) of 0.005 µg/mL, a neutralization IC50 (BX08_16) of 0.062 µg/mL and a neutralization IC50 (BL01.DG) greater than 50 µg/mL. For the same substance, the neutralization IC50 (YU2.DG) was 0.041 µg/mL, the neutralization IC50 (TRO.11 (pseudovirus)) was 4.86 µg/mL and the neutralization IC50 [1] was 10.5 µg/mL. The neutralization IC50 (CNE10) was 9.17 µg/mL, the neutralization IC50 (HT593.1) was 0.153 µg/mL and the neutralization IC50 [2] was greater than 50 µg/mL. The neutralization IC50 (WITO.33) was less than 0.023 µg/mL, the neutralization IC50 (T33-7) was less than 0.023 µg/mL and the neutralization IC50 [3] was greater than 50 µg/mL. The neutralization IC50 (QH0692.42 (pseudovirus)) was greater than 50 µg/mL, the neutralization IC50 (AC10.29) was less than 0.023 µg/mL and the neutralization IC50 (CNE12) was greater than 50 µg/mL. The neutralization IC50 [4] was greater than 50 µg/mL, the neutralization IC50 [5] was 1.32 µg/mL and the neutralization IC50 (T250-4) was less than 0.0006 µg/mL. For the same substance, the neutralization IC50 (BR07.DG) was greater than 50 µg/mL, the neutralization IC50 (JR-CSF) was 0.002 µg/mL and the neutralization IC50 (HO86.8) was 0.001 µg/mL. It also gave a neutralization IC50 (T255-34) of 0.005 µg/mL, a neutralization IC50 (T280-5) of 0.233 µg/mL and a neutralization IC50 (T266-60) greater than 50 µg/mL. It also gave a neutralization IC50 (MN.3) greater than 50 µg/mL, a neutralization IC50 (CNE14) greater than 50 µg/mL and a neutralization IC50 (T253-11) of 4.44 µg/mL. For the same substance, the neutralization IC80 (6644.V2.C33 (HIV-1)) was greater than 50 µg/mL, the neutralization IC80 [6] was greater than 50 µg/mL and the neutralization IC80 (3168.V4.C10 (HIV-1)) was 0.515 µg/mL. It also gave a neutralization IC80 (DU422.01 (HIV-1)) of 49.9 µg/mL, a neutralization IC80 (TV1.29 (HIV-1)) of 0.15 µg/mL and a neutralization IC80 (CNE40 (HIV-1)) greater than 50 µg/mL. The neutralization IC80 [7] was greater than 50 µg/mL, the neutralization IC80 [8] was greater than 50 µg/mL and the neutralization IC80 (CH181.12 (HIV-1)) was 0.01 µg/mL. The neutralization IC80 (96ZM651_02 (HIV-1)) was greater than 50 µg/mL, the neutralization IC80 (DU123.06 (HIV-1)) was 0.163 µg/mL and the neutralization IC80 (ZM176.66 (HIV-1)) was 0.01 µg/mL. For the same substance, the neutralization IC80 (CNE7 (HIV-1)) was 1.91 µg/mL, the neutralization IC80 (CNE15 (HIV-1)) was less than 0.023 µg/mL and the neutralization IC80 (6785.V5.C14 (HIV-1)) was less than 0.023 µg/mL. For the same substance, the neutralization IC80 (BR025.9 (HIV-1)) was 0.049 µg/mL, the neutralization IC80 [9] was greater than 50 µg/mL and the neutralization IC80 (ZM146.7 (HIV-1)) was greater than 50 µg/mL. For the same substance, the neutralization IC80 (CAP244.D3 (HIV-1)) was 0.058 µg/mL, the neutralization IC80 (DU172.17 (HIV-1)) was 0.134 µg/mL and the neutralization IC80 (CNE31 (HIV-1)) was greater than 50 µg/mL. For the same substance, the neutralization IC80 (DU156.12 (HIV-1)) was less than 0.023 µg/mL, the neutralization IC80 (SO18.18 (HIV-1)) was 0.136 µg/mL and the neutralization IC80 (ZM109.4 (HIV-1)) was greater than 50 µg/mL. It also gave a neutralization IC80 (TZA125.17 (HIV-1)) of 0.719 µg/mL, a neutralization IC80 (3637.V5.C3 (HIV-1)) greater than 50 µg/mL and a neutralization IC80 (CNE53 (HIV-1)) greater than 50 µg/mL. It also gave a neutralization IC80 (TZBD.02 (HIV-1)) of 0.175 µg/mL, a neutralization IC80 (ZA012.29 (HIV-1)) greater than 50 µg/mL and a neutralization IC80 (CNE58 (HIV-1)) of less than 0.023 µg/mL. It also gave a neutralization IC80 (ZM215.8 (HIV-1)) greater than 50 µg/mL, a neutralization IC80 [10] greater than 50 µg/mL and a neutralization IC80 (ZM197.7 (HIV-1)) of 6.67 µg/mL. It also gave a neutralization IC80 (0077_V1_C16 (HIV-1)) of 0.075 µg/mL, a neutralization IC80 (ZM106.9 (HIV-1)) greater than 50 µg/mL and a neutralization IC80 (ZM214.15 (HIV-1)) greater than 50 µg/mL. For the same substance, the neutralization IC80 (CAP45.G3 (HIV-1)) was less than 0.023 µg/mL, the neutralization IC80 [11] was greater than 50 µg/mL and the neutralization IC80 (MW965.26 (HIV-1)) was greater than 50 µg/mL.
monoclonal antibody PG9 was tested, and the neutralization IC50 (REJO.67) was 0.005 µg/mL, the neutralization IC50 (BX08_16) was 0.024 µg/mL and the neutralization IC50 (BL01.DG) was greater than 50 µg/mL. The neutralization IC50 (YU2.DG) was 3.69 µg/mL, the neutralization IC50 (TRO.11 (pseudovirus)) was 41.5 µg/mL and the neutralization IC50 [1] was greater than 50 µg/mL. It also gave a neutralization IC50 (CNE10) of 0.243 µg/mL, a neutralization IC50 (HT593.1) of 0.271 µg/mL and a neutralization IC50 [2] greater than 50 µg/mL. For the same substance, the neutralization IC50 (WITO.33) was less than 0.023 µg/mL, the neutralization IC50 (T33-7) was less than 0.023 µg/mL and the neutralization IC50 [3] was greater than 50 µg/mL. It also gave a neutralization IC50 (QH0692.42 (pseudovirus)) greater than 50 µg/mL, a neutralization IC50 (AC10.29) of 0.078 µg/mL and a neutralization IC50 (CNE12) greater than 50 µg/mL. It also gave a neutralization IC50 [4] greater than 50 µg/mL, a neutralization IC50 [5] greater than 50 µg/mL and a neutralization IC50 (T250-4) of less than 0.0006 µg/mL. For the same substance, the neutralization IC50 (BR07.DG) was greater than 50 µg/mL, the neutralization IC50 (JR-CSF) was 0.003 µg/mL and the neutralization IC50 (HO86.8) was 0.014 µg/mL. The neutralization IC50 (T255-34) was 0.015 µg/mL, the neutralization IC50 (T280-5) was 0.379 µg/mL and the neutralization IC50 (T266-60) was 24 µg/mL. The neutralization IC50 (MN.3) was greater than 50 µg/mL, the neutralization IC50 (CNE14) was greater than 50 µg/mL and the neutralization IC50 (T253-11) was 0.127 µg/mL. For the same substance, the neutralization IC80 (6644.V2.C33 (HIV-1)) was 0.12 µg/mL, the neutralization IC80 [6] was greater than 50 µg/mL and the neutralization IC80 (3168.V4.C10 (HIV-1)) was 0.657 µg/mL. It also gave a neutralization IC80 (DU422.01 (HIV-1)) of 15.8 µg/mL, a neutralization IC80 (TV1.29 (HIV-1)) of 0.044 µg/mL and a neutralization IC80 (CNE40 (HIV-1)) of 20 µg/mL. The neutralization IC80 [7] was greater than 50 µg/mL, the neutralization IC80 [8] was greater than 50 µg/mL and the neutralization IC80 (CH181.12 (HIV-1)) was 0.04 µg/mL. The neutralization IC80 (96ZM651_02 (HIV-1)) was greater than 50 µg/mL, the neutralization IC80 (DU123.06 (HIV-1)) was 0.477 µg/mL and the neutralization IC80 (ZM176.66 (HIV-1)) was 0.05 µg/mL. It also gave a neutralization IC80 (CNE7 (HIV-1)) of 4.5 µg/mL, a neutralization IC80 (CNE15 (HIV-1)) of less than 0.023 µg/mL and a neutralization IC80 (6785.V5.C14 (HIV-1)) of 0.094 µg/mL. It also gave a neutralization IC80 (BR025.9 (HIV-1)) of 0.215 µg/mL, a neutralization IC80 [9] greater than 50 µg/mL and a neutralization IC80 (ZM146.7 (HIV-1)) of 6.78 µg/mL. It also gave a neutralization IC80 (CAP244.D3 (HIV-1)) of 0.362 µg/mL, a neutralization IC80 (DU172.17 (HIV-1)) of 0.899 µg/mL and a neutralization IC80 (CNE31 (HIV-1)) greater than 50 µg/mL. For the same substance, the neutralization IC80 (DU156.12 (HIV-1)) was 0.143 µg/mL, the neutralization IC80 (SO18.18 (HIV-1)) was 0.227 µg/mL and the neutralization IC80 (ZM109.4 (HIV-1)) was 2.64 µg/mL. It also gave a neutralization IC80 (TZA125.17 (HIV-1)) of 1.21 µg/mL, a neutralization IC80 (3637.V5.C3 (HIV-1)) greater than 50 µg/mL and a neutralization IC80 (CNE53 (HIV-1)) of 0.809 µg/mL. The neutralization IC80 (TZBD.02 (HIV-1)) was 1.3 µg/mL, the neutralization IC80 (ZA012.29 (HIV-1)) was greater than 50 µg/mL and the neutralization IC80 (CNE58 (HIV-1)) was 0.068 µg/mL. It also gave a neutralization IC80 (ZM215.8 (HIV-1)) of 0.228 µg/mL, a neutralization IC80 [10] greater than 50 µg/mL and a neutralization IC80 (ZM197.7 (HIV-1)) of 1.92 µg/mL. For the same substance, the neutralization IC80 (0077_V1_C16 (HIV-1)) was 0.343 µg/mL, the neutralization IC80 (ZM106.9 (HIV-1)) was 6.58 µg/mL and the neutralization IC80 (ZM214.15 (HIV-1)) was greater than 50 µg/mL. The neutralization IC80 (CAP45.G3 (HIV-1)) was less than 0.023 µg/mL, the neutralization IC80 [11] was greater than 50 µg/mL and the neutralization IC80 (MW965.26 (HIV-1)) was 49.9 µg/mL.
